The target in series [1] is T1, SaSsbA (Staphylococcus aureus, UniProt A0A0D1JHQ1).
T1 construct: gene ssb; tetramer in crystal
T1 sequence (A0A0D1JHQ1 1-167): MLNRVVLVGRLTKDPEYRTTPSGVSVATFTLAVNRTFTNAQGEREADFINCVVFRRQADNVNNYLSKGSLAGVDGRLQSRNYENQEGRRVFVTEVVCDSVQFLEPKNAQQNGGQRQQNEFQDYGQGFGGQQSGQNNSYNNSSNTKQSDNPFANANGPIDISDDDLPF
The series is described as follows: EMSA inhibition of ssDNA binding. In general terms: A gel shift assay detects complexes by their altered migration in electrophoresis.

In series [2] the target is T2, SaSsbA (Staphylococcus aureus) (UniProt A0A0D1JHQ1).
T2 sequence: T1 sequence (A0A0D1JHQ1 1-167)
Kind of series: EMSA. Conditions: EMSA: 40 mM Tris-HCl pH 7.5, 50 mM NaCl, 37 C, 60 min, 30 fmol/uL DNA (30 nM); 8% native PAGE in TBE.

Series [3] deals with T3, SaSsbA (Staphylococcus aureus, UniProt A0A0D1JHQ1 1-167). Kind of series: EMSA; EMSA: 40 mM Tris-HCl pH 7.5, 50 mM NaCl, 37 C, 60 min, 30 fmol/uL DNA (30 nM); 8% native PAGE in TBE. Conditions: protein: recombinant; chain copies: 4; label: 5' biotin; single strand.
Series [4] concerns the target T3, SaSsbA. Kind of series: EMSA; no shift up to 10 uM protein; EMSA: 40 mM Tris-HCl pH 7.5, 50 mM NaCl, 37 C, 60 min, 30 fmol/uL DNA (30 nM); 8% native PAGE in TBE. Conditions: protein: recombinant; chain copies: 4; label: biotin on PS4 (strand 1); blunt.

Read-outs that look alike come from different tables or passages of the source. A value given as a limit tells only on which side of the number the result lay.

With `O=c1c(O)c(-c2cc(O)c(O)c(O)c2)oc2cc(O)cc(O)c12` [myricetin], the IC50 at SaSsbA [1] (read-out: no inhibition at 300 μM) was above 300 µM.

In series [2], “CCCGAATTCGGATAGCTCGGTACCCTTTTTTTTTTTTTTTTTTTTTTTTT / GGGTACCGAGCTATCCGAATTCGGG [PS4/PS3-3'-dT25]” came in with a K half of 940 nM.

Take `O=C1c2c(O)cc(O)cc2O[C@H](c2ccc(O)c(O)c2)[C@H]1O` [dihydroquercetin]: the IC50 on SaSsbA [1] (read-out: no inhibition at 1000 μM) was above 1000 µM.

Consider `O=C1c2c(O)cc(O)cc2O[C@H](c2ccc(O)cc2)[C@H]1O` [dihydrokaempferol], for which the IC50 at SaSsbA [1] (read-out: IC50) was 750 ± 62 µM.

Take TTTTTTTTTTTTTTTTTTTTTTTTTTTTTT (ssDNA) [dT30]: the “apparent K (half saturation)” value with SaSsbA [3] amounted to 460 ± 30 nM.

B1: PS4/PS3 (dsDNA)
DNA 1: GGGTACCGAGCTATCCGAATTCGGG
DNA 2: CCCGAATTCGGATAGCTCGGTACCC
As to B1, the binding result with SaSsbA [4] is listed as “no binding”.

B2: dT59 (ssDNA)
DNA: TTTTTTTTTTTTTTTTTTTTTTTTTTTTTTTTTTTTTTTTTTTTTTTTTTTTTTTTTTT
With B2, the “apparent K (half saturation)” value with SaSsbA [3] amounted to 240 ± 10 nM.

In the case of TTTTTTTTTTTTTTTTTTTTTTTTTTTTTTTTTTT (ssDNA) [dT35], the “apparent K (half saturation)” value with SaSsbA [3] was 360 ± 20 nM.

As for TTTTTTTTTTTTTTTTTTTT (ssDNA) [dT20], the “apparent K (half saturation)” value in the series with SaSsbA [3] is 1770 ± 110 nM.

The record behind these values is PMC9692666, “The Inhibitory Effects and Cytotoxic Activities of the Stem Extract of Sarracenia purpurea against Melanoma Cells and the SsbA Protein” (Plants, 2022).
